Laboratory results as given in the supplement of paper PMC7877785.
± gives the uncertainty stated by the source.

Assay: self-splicing fitness, log relative to wild type (ln ratio); higher = more splicing; Tetrahymena group I intron in knt gene, E. coli kanamycin selection, DiMSum; sequences stand for … in CUCUCU…GGAGGGAAAAGUUAUCAGGCAUGCACCUGGUAGCUAGUCUUUAAACCAAUAGAUUGCAUCGGUUUAAAAGGCAAGACCGUCAAAUUGCGGGAAAGGGGUCAACAGCCGUUCAGUACCAAGUCUCAGGGGAAACUUUGAGAUGGCCUUGCAAAGGGUAUGGUAAUAAGCUGACGGACAUGGUCCUAACCACGCAGCCAAGUCCUAAGUCAACAGAUCUUCUGUUGAUAUGGAUGCAGUUCACAGACUAAAUGUCGGUCGGGGAAGAUGUAUUCUUCUCAUAAGAUAUAGUCGGACCUCUCCUUAAUGGGAGCUAGCGGAUGAAGUGAUGCAACACUGGAGCCGCUGGGAACUAAUUUGUAUGCGAAAGUAUAUUGAUUAGUUUUGGAGUACUCGUGGUCG
Method in brief: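 A randomised library covering all eight P1ex-region intron nucleotides was built with the intron in the knt kanamycin-resistance gene on pET-22b(+) and held in E. coli BL21(DE3). Cells were grown overnight at 37°C or 30°C on LB agar, with or without 25 μg/mL kanamycin, plus 100 μg/mL carbenicillin, 50 μM IPTG and 0.2% rhamnose, and pooled colonies were amplicon-sequenced on an Illumina HiSeq 2500. DiMSum fitness is the error-weighted combination of wild-type-normalised replicate fold changes, kanamycin versus none.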

Row | Sequence | self-splicing fitness (ln) (30 °C) | self-splicing fitness (ln) (37 °C)
1 | UUCAAGCAAUAUUACGUCGU | -2.69 ± 0.15 | -1.44 ± 0.14
2 | UUCAAGCAAUAUUACGUCUG | -3.08 ± 0.24 | -1.46 ± 0.14
3 | UUCAAGCAAUAUUACGUGCU | -4.47 ± 0.42 | -2.86 ± 0.35
4 | UUCAAGCAAUAUUACGUUUG | -3.95 ± 0.34 | -2.31 ± 0.28
5 | UUCCAGCAAUAUUACGACGG | -2.74 ± 0.32 | -1.98 ± 0.29
6 | UUCCAGCAAUAUUACGAGCU | -3.64 ± 0.23 | -2.71 ± 0.27
7 | UUCCAGCAAUAUUACGAGUG | -0.354 ± 0.059 | -0.52 ± 0.069
8 | UUCCAGCAAUAUUACGCAGA | -2.09 ± 0.21 | -1.32 ± 0.16
9 | UUCCAGCAAUAUUACGCCAG | -1.93 ± 0.15 | -0.95 ± 0.15
10 | UUCCAGCAAUAUUACGCUCG | – | -0.977 ± 0.23
11 | UUCCAGCAAUAUUACGCUGA | -3.73 ± 0.24 | -1.91 ± 0.14
12 | UUCCAGCAAUAUUACGGCAA | -0.0711 ± 0.1 | 0.362 ± 0.12
13 | UUCCAGCAAUAUUACGGCUG | -3.09 ± 0.2 | -2.68 ± 0.25
14 | UUCCAGCAAUAUUACGGGAC | – | -1.29 ± 0.39
15 | UUCCAGCAAUAUUACGGGGG | -3.3 ± 0.15 | -1.57 ± 0.14
16 | UUCCAGCAAUAUUACGGUUU | -0.65 ± 0.064 | -0.427 ± 0.063
17 | UUCCAGCAAUAUUACGUAAA | -0.607 ± 0.086 | 0.616 ± 0.12
18 | UUCCAGCAAUAUUACGUAGC | -3.54 ± 0.17 | -1.51 ± 0.2
19 | UUCCAGCAAUAUUACGUCGC | -1.69 ± 0.32 | -1.23 ± 0.45
20 | UUCCAGCAAUAUUACGUUGC | -2.4 ± 0.15 | -2.47 ± 0.33
21 | UUCGAGCAAUAUUACGAAAA | -2.97 ± 0.31 | -1.28 ± 0.18
22 | UUCGAGCAAUAUUACGAAAC | – | -1.41 ± 0.43
23 | UUCGAGCAAUAUUACGAGGA | -1.87 ± 0.27 | -2.76 ± 0.44
24 | UUCGAGCAAUAUUACGAGUA | -1.57 ± 0.15 | -1.43 ± 0.18
25 | UUCGAGCAAUAUUACGAUAA | -1.53 ± 0.097 | -0.787 ± 0.11

Row | Sequence | self-splicing fitness (ln) (30 °C) | self-splicing fitness (ln) (37 °C)
26 | UUCGAGCAAUAUUACGAUCG | -2.94 ± 0.32 | -1.53 ± 0.43
27 | UUCGAGCAAUAUUACGCAGU | -2.87 ± 0.36 | -1.61 ± 0.33
28 | UUCGAGCAAUAUUACGCCAG | -2.94 ± 0.24 | -0.74 ± 0.21
29 | UUCGAGCAAUAUUACGCGAU | -2.39 ± 0.21 | -2.11 ± 0.27
30 | UUCGAGCAAUAUUACGCGGC | – | -2.29 ± 0.49
31 | UUCGAGCAAUAUUACGGUCC | -1.91 ± 0.39 | -1.56 ± 0.43
32 | UUCGAGCAAUAUUACGUAUA | -2.7 ± 0.33 | -2.78 ± 0.41
33 | UUCGAGCAAUAUUACGUGUU | -4.05 ± 0.25 | -1.72 ± 0.18
34 | UUCGAGCAAUAUUACGUUAC | -3.5 ± 0.48 | –
35 | UUCGAGCAAUAUUACGUUCU | -1.47 ± 0.15 | -0.345 ± 0.16
36 | UUCGAGCAAUAUUACGUUUG | -2.94 ± 0.14 | -2.99 ± 0.2
37 | UUCUAGCAAUAUUACGAGGA | -2.56 ± 0.25 | -1.4 ± 0.25
38 | UUCUAGCAAUAUUACGAUCA | -1.69 ± 0.23 | -0.172 ± 0.18
39 | UUCUAGCAAUAUUACGCCUU | -3.43 ± 0.21 | -2.57 ± 0.15
40 | UUCUAGCAAUAUUACGCGCG | -2.24 ± 0.32 | -1.05 ± 0.18
41 | UUCUAGCAAUAUUACGCUCA | -0.563 ± 0.15 | -0.208 ± 0.19
42 | UUCUAGCAAUAUUACGCUGA | -1.04 ± 0.31 | -0.752 ± 0.25
43 | UUCUAGCAAUAUUACGCUUC | -2.8 ± 0.32 | -1.96 ± 0.22
44 | UUCUAGCAAUAUUACGGACC | -1.51 ± 0.3 | –
45 | UUCUAGCAAUAUUACGGCCG | -1.96 ± 0.14 | -1.56 ± 0.16
46 | UUCUAGCAAUAUUACGGCGU | -1.72 ± 0.13 | -1.2 ± 0.14
47 | UUCUAGCAAUAUUACGGGGC | -3.22 ± 0.32 | -2.02 ± 0.26
48 | UUCUAGCAAUAUUACGGUAC | -4.34 ± 0.36 | -2.76 ± 0.3
49 | UUCUAGCAAUAUUACGGUAG | -2.29 ± 0.23 | -3.15 ± 0.37
